The record followed here is IntAct's records for PubMed 29892012.

B1: Keratin, type I cuticular Ha8 (Homo sapiens), O76015 (parent)
chain: MTSSYSSSSCPLGCTMAPGARNVSVSPIDIGCQPGAEANIAPMCLLANVAHANRVRVGSTPLGRPSLCLPPTCHTACPLPGTCHIPGNIGICGAYGENTLNGHEKETMQFLNDRLANYLEKVRQLEQENAELEATLLERSKCHESTVCPDYQSYFHTIEELQQKILCSKAENARLIVQIDNAKLAADDFRIKLESERSLRQLVEADKCGTQKLLDDATLAKADLEAQQESLKEEQLSLKSNHEQEVKILRSQLGEKLRIELDIEPTIDLNRVLGEMRAQYEAMLETNRQDVEQWFQAQSEGISLQDMSCSEELQCCQSEILELRCTVNALEVERQAQHTLKDCLQNSLCEAEDRFGTELAQMQSLISNVEEQLSEIRADLERQNQEYQVLLDVKTRLENEIATYRNLLESEDCKLPCNPCSTSPSCVTAPCAPRPSCGPCTTCGPTCGASTTGSRF
partner: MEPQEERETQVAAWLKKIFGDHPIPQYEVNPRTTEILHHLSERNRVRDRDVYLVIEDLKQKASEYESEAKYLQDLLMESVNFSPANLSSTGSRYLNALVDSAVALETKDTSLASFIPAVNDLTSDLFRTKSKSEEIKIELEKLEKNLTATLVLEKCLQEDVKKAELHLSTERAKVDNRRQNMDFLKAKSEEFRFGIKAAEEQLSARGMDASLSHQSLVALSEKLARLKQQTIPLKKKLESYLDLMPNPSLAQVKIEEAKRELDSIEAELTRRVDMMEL
B2: Kinetochore protein NDC80 homolog (Homo sapiens), O14777 (parent)
chain: MKRSSVSSGGAGRLSMQELRSQDVNKQGLYTPQTKEKPTFGKLSINKPTSERKVSLFGKRTSGHGSRNSQLGIFSSSEKIKDPRPLNDKAFIQQCIRQLCEFLTENGYAHNVSMKSLQAPSVKDFLKIFTFLYGFLCPSYELPDTKFEEEVPRIFKDLGYPFALSKSSMYTVGAPHTWPHIVAALVWLIDCIKIHTAMKESSPLFDDGQPWGEETEDGIMHNKLFLDYTIKCYESFMSGADSFDEMNAELQSKLKDLFNVDAFKLESLEAKNRALNEQIARLEQEREKEPNRLESLRKLKASLQGDVQKYQAYMSNLESHSAILDQKLNGLNEEIARVELECETIKQENTRLQNIIDNQKYSVADIERINHERNELQQTINKLTKDLEAEQQKLWNEELKYARGKEAIETQLAEYHKLARKLKLIPKGAENSKGYDFEIKFNPEAGANCLVKYRAQVYVPLKELLNETEEEINKALNKKMGLEDTLEQLNAMITESKRSVRTLKEEVQKLDDLYQQKIKEAEEEDEKCASELESLEKHKHLLESTVNQGLSEAMNELDAVQREYQLVVQTTTEERRKVGNNLQRLLEMVATHVGSVEKHLEEQIAKVDREYEECMSEDLSENIKEIRDKYEKKATLIKSSEE
B3: CLK4-associating serine/arginine rich protein (Homo sapiens), Q8N2M8 (parent)
chain: MWHEARKHERKLRGMMVDYKKRAERRREYYEKIKKDPAQFLQVHGRACKVHLDSAVALAAESPVNMMPWQGDTNNMIDRFDVRAHLDHIPDYTPPLLTTISPEQESDERKCNYERYRGLVQNDFAGISEEQCLYQIYIDELYGGLQRPSEDEKKKLAEKKASIGYTYEDSTVAEVEKAAEKPEEEESAAEEESNSDEDEVIPDIDVEVDVDELNQEQVADLNKQATTYGMADGDFVRMLRKDKEEAEAIKHAKALEEEKAMYSGRRSRRQRREFREKRLRGRKISPPSYARRDSPTYDPYKRSPSESSSESRSRSRSPTPGREEKITFITSFGGSDEEAAAAAAAAAASGVTTGKPPAPPQPGGPAPGRNASARRRSSSSSSSSSASRTSSSRSSSRSSSRSRRGGGYYRSGRHARSRSRSWSRSRSRSRRYSRSRSRGRRHSGGGSRDGHRYSRSPARRGGYGPRRRSRSRSHSGDRYRRGGRGLRHHSSSRSRSSWSLSPSRSRSLTRSRSHSPSPSQSRSRSRSRSQSPSPSPAREKLTRPAASPAVGEKLKKTEPAAGKETGAAKPKLTPQEKLKLRMQKALNRQFKADKKAAQEKMIQQEHERQEREDELRAMARKIRMKERERREKEREEWERQYSRQSRSPSPRYSREYSSSRRRSRSRSRSPHYRH
partner: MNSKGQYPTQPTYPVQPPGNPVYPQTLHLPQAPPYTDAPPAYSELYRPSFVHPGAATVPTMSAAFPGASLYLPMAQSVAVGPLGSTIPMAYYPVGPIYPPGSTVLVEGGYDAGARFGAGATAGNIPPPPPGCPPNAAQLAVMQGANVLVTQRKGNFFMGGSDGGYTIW
B4: Protein VAC14 homolog (Homo sapiens), Q08AM6 (parent)
chain: MNPEKDFAPLTPNIVRALNDKLYEKRKVAALEIEKLVREFVAQNNTVQIKHVIQTLSQEFALSQHPHSRKGGLIGLAACSIALGKDSGLYLKELIEPVLTCFNDADSRLRYYACEALYNIVKVARGAVLPHFNVLFDGLSKLAADPDPNVKSGSELLDRLLKDIVTESNKFDLVSFIPLLRERIYSNNQYARQFIISWILVLESVPDINLLDYLPEILDGLFQILGDNGKEIRKMCEVVLGEFLKEIKKNPSSVKFAEMANILVIHCQTTDDLIQLTAMCWMREFIQLAGRVMLPYSSGILTAVLPCLAYDDRKKSIKEVANVCNQSLMKLVTPEDDELDELRPGQRQAEPTPDDALPKQEGTASGGPDGSCDSSFSSGISVFTAASTERAPVTLHLDGIVQVLNCHLSDTAIGMMTRIAVLKWLYHLYIKTPRKMFRHTDSLFPILLQTLSDESDEVILKDLEVLAEIASSPAGQTDDPGPLDGPDLQASHSELQVPTPGRAGLLNTSGTKGLECSPSTPTMNSYFYKFMINLLKRFSSERKLLEVRGPFIIRQLCLLLNAENIFHSMADILLREEDLKFASTMVHALNTILLTSTELFQLRNQLKDLKTLESQNLFCCLYRSWCHNPVTTVSLCFLTQNYRHAYDLIQKFGDLEVTVDFLAEVDKLVQLIECPIFTYLRLQLLDVKNNPYLIKALYGLLMLLPQSSAFQLLSHRLQCVPNPELLQTEDSLKAAPKSQKADSPSIDYAELLQHFEKVQNKHLEVRHQRSGRGDHLDRRVVL
partner: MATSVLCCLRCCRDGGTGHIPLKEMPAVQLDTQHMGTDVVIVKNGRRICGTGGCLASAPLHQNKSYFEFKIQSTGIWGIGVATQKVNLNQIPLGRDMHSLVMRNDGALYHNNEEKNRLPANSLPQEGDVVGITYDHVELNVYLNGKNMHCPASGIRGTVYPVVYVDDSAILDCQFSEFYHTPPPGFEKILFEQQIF
B5: Keratin, type I cuticular Ha8 (Homo sapiens), O76015 (parent)
chain: B1 chain
partner: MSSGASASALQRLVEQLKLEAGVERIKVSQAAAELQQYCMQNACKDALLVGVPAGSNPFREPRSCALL

The variants in the first assay derive from B1. As to conditions: with haus1_human HAUS1, Q96CS2.
On to N270K, for which the “effect of a mutation on the interaction” value is on record as “with no effect”.

In the next assay the parent is B1. As to conditions: with haus1_human HAUS1, Q96CS2. The source holds these as a separate data set.
For the variant D306A, the “effect of a mutation on the interaction” value is reported as “with no effect”.

The variants in another assay derive from B2. As to conditions: with tnip1_human TNIP1, Q15025.
tnip1_human TNIP1, Q15025, sequence (Q15025 whole entry): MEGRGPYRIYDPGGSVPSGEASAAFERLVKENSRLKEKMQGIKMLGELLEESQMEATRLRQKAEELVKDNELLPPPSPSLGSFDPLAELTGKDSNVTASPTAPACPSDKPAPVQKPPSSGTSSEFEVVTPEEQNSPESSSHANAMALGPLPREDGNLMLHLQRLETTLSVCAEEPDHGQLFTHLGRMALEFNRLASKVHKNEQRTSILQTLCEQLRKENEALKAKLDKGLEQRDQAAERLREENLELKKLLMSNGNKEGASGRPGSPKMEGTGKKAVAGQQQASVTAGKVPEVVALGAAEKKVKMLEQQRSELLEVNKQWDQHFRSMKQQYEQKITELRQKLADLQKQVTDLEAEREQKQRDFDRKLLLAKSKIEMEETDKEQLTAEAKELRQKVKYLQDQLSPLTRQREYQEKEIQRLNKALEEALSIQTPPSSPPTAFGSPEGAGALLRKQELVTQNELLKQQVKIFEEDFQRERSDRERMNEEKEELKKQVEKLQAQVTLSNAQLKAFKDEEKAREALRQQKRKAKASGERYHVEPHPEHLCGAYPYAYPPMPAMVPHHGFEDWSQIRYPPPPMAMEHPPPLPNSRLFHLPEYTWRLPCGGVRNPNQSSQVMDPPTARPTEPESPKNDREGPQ
For K288E, the “effect of a mutation on the interaction” value is reported as “with no effect”.

Variants of B2 are the subject of a further assay. As to conditions: with amol2_human AMOTL2, Q9Y2J4.
amol2_human AMOTL2, Q9Y2J4, sequence (Q9Y2J4 whole entry): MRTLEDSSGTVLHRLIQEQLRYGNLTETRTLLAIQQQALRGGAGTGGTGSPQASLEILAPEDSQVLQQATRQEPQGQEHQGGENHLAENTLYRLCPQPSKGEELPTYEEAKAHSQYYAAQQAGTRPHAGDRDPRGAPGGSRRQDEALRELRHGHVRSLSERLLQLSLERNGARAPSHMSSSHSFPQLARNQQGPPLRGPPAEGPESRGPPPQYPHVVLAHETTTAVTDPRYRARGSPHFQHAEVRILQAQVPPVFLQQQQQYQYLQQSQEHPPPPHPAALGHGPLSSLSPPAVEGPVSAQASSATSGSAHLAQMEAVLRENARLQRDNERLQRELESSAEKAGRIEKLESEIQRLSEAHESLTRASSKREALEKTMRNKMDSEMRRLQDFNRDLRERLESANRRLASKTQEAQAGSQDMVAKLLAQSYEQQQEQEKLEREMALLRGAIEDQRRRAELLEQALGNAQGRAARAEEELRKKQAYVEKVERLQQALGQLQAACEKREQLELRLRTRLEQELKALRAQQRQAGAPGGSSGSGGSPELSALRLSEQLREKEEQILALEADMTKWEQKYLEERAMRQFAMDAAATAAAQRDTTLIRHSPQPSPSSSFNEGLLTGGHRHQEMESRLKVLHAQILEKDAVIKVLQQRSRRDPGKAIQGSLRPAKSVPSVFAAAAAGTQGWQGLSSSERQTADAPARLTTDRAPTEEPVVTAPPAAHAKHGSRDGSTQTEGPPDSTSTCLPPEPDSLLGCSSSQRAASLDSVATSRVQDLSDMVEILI
Take K288E: the “effect of a mutation on the interaction” value is recorded as “with no effect”.

Variants of B2 are the subject of the next assay. As to conditions: with atf4_human ATF4, P18848.
atf4_human ATF4, P18848, sequence (P18848 whole entry): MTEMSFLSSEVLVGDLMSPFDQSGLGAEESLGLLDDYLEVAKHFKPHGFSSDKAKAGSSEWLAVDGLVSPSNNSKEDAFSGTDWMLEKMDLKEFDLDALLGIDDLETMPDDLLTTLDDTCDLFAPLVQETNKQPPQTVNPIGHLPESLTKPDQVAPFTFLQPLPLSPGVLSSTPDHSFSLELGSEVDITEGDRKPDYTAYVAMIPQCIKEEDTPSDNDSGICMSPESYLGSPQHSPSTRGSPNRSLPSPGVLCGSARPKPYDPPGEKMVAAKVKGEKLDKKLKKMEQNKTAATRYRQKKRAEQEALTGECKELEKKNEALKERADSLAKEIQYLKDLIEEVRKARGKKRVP
Regarding K288E, the “effect of a mutation on the interaction” value was “with no effect”.

The variants in the next assay derive from B2. As to conditions: with txlna_human TXLNA.
As to K288E, the “effect of a mutation on the interaction” value was “with no effect”.

The variants in another assay derive from B3. As to conditions: with dazp2_human DAZAP2, Q15038.
As to I163V, the “effect of a mutation on the interaction” value is listed as “with no effect”.

The next assay covers variants of B4. As to conditions: with spry7_human SPRYD7, Q5W111.
For A127S, the “effect of a mutation on the interaction” value is reported as “with no effect”.

In a further assay the parent is B5. As to conditions: with gbg10_human GNG10, P50151.
For D306A, the “effect of a mutation on the interaction” value was “with no effect”.

The variants in another assay derive from B5. As to conditions: with gbg10_human GNG10, P50151. The source holds these as a separate data set.
On to N270K, for which the “effect of a mutation on the interaction” value is listed as “with no effect”.
